The values below are quoted from earlier work in paper PMC4596410.

This data set addresses Lys115 (UniProt position 115, LSAYPKKLGYP).

As for “Acetoacetate decarboxylase (not stated in the article (Clostridium acetobutylicum inferred))”, the pKa is 6.

What is called pKa is the pH at which an ionisable group is half protonated.
